In article PMC7062751:

Columns and labels:
free SUMO1 = free SUMO1 (UniProt P63165); assay: pull-down (IP: TEX264-GFP) with immunoblot, quantified band ratio; settings: purified GFP-tagged TEX264 incubated with free SUMO1; parent: 1
[1] = biological target: TEX264^SIM2*-FLAG (SIM2-mutated variant) (UniProt Q9Y6I9); assay: co-IP; tandem affinity purification from ΔTEX264 HEK293 co-expressing FLAG-tagged TEX264 and HA-SUMO1: FLAG IP under native conditions, then anti-HA IP after boiling in 1% SDS; eluates probed for TOP1
Sequence of UniProt Q9Y6I9 (Q9Y6I9 whole entry, stated change not applied): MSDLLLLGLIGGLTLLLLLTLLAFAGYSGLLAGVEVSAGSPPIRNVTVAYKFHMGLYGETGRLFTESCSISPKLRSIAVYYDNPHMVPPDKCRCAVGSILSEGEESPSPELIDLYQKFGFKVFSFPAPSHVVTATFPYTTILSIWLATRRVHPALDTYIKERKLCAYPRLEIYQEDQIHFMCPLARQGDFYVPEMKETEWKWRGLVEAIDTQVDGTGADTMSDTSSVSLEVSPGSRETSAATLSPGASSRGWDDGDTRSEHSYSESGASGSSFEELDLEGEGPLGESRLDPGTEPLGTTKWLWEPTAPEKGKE

Sequence of UniProt P63165 (P63165 1-97): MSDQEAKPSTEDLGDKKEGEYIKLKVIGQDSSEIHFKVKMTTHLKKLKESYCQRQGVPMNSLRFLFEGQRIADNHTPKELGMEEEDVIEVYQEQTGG

Substance	ratio to parent (free SUMO1)	percent less co-immunoprecipitated than with TEX264^WT [1] [%]
GFP-tagged TEX264, wild type (from UniProt Q9Y6I9) SIM1*	0.25	
GFP-tagged TEX264, wild type (from UniProt Q9Y6I9) SIM2*	0	
SUMO1-modified TOP1 (HA-SUMO1 conjugated to endogenous TOP1) (from UniProt P11387 1-765; P63165 1-97)		70
